test: yeast display, Sf9 membrane polyspecificity reagent, FACS + sequencing; frameworks hold sequencing errors
Method in brief: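 Galactose-induced (36–48 hours) yeast carrying a synthetic nanobody display library were exposed to 10% biotinylated, detergent-solubilized Sf9 membrane reagent at 4 °C for 1 hour. FACS followed streptavidin microbead enrichment, using low and high (top ~1%) gates for expression (anti-HA) and reagent binding (streptavidin). Colony PCR, MiSeq 2 × 250 sequencing and CDR-length filtering followed. Labels for polyreactivity reflect the gate of origin.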

Question: For “QVQLVESGGGLVQAGGSLRLSCAASGRIFSFNAMGRYRQAPGKERELVAAITWRGGSTYYADSVKGRFTISRDNAKNTVYLQMNSLKPEDTAVYYCNAYPFWRDYDYWGQGTQVTVSS”, which “polyreactivity (PSR sort gate)” value is on record?
Answer: high polyreactivity

Question: For “QVQLVESGGGLVQAGGSLRLSCAASGFTLGGYAMGWYRQAPGKEREFVAAISGRGGRTYYADSVKGRFTISRDNAKNTVYLQMNSLKPEDTAVYYCAAPTNHWTRLSGDYWGQGTQVTVSS”, which “polyreactivity (PSR sort gate)” value is on record?
Answer: high polyreactivity

Question: With “QVHLVESAGGLVQAGGSLSLSCHASGSTFVWNAMGWYRQAPGKEMELVATMTLSTGSTYYADSVKGRFTISRDNAKNTVYLQMNSLKPEDTAVYYCNTEIFVDIIYDYGLWGQGTQVTVSS” as the sequence, how does the “polyreactivity (PSR sort gate)” value read?
Answer: low polyreactivity

Question: Which “polyreactivity (PSR sort gate)” value does the source give for “QVHLVESGGGLVQAGGSLRLSCAASGSIFYRNAMGWYRPAPGKERELVAAISSDGSTNYADSVKGRFTISRDNEKNTVYLQMNSLKPEDTAVYYCAAPWTQILDYWGQGNQVTVSS” here?
Answer: low polyreactivity

Question: With “QVQLVESGGGLVQAGGSLRLSCASSGSTFDYYVMGWYRQEPGIVRELVASISSGGSTYYADSVKGRFTISRDNAKNTVYLQMNSLKPEDTAVYYCAARYYGRVGGYSIGYNYWGQGTQVTVSS” as the sequence, how does the “polyreactivity (PSR sort gate)” value read?
Answer: high polyreactivity

Question: For “QVQLVESGGGLVQAGGSLRLSCAASGSTFNSNAMGWYRQAPGKERELVAAINYSGGSTYYADSVKGRFTISRDNAKNTVYLQMNSLKPEDTAVYYCNKVYFDHYLSRVYYWGQVTQVTVSS”, which “polyreactivity (PSR sort gate)” value is on record?
Answer: high polyreactivity

Question: For “QVQVVESGGGLVQAGGSLRLSCAASGSTFYSNAMGWYSQAAGQERELVAAITWSDGSTYYADSVMGRFTISRDNAKHTVYVQMNSHKPEDTALYYCSATQAEVVWTPVYVEYDYWGQGTQVTVSS”, which “polyreactivity (PSR sort gate)” value is on record?
Answer: high polyreactivity

Question: Which “polyreactivity (PSR sort gate)” value does the source give for “QVQLVESGGGLVQAGGSLRLSSAASGRIFYRNAMGWCRQAPGKERELVASITSAGRRYYADSVKGRFTISRDNAKNTVYLQMNSLKPEDTAVYYCAVRVAVLLNLYGYWGQGTQVTVSS” here?
Answer: low polyreactivity

Question: With “QVQLVESGGGLVQAGGSLRLSCAASGRIFRTYAMGWYRQAPGKERELVAAITWSGGSTYYADSVKGRFTISRDNAKNTVYLQMNSLKPEDTAVYYCNALTPGYRIYDYWGQGTQVTVSS” as the sequence, how does the “polyreactivity (PSR sort gate)” value read?
Answer: high polyreactivity

Question: For “QVQLVESGGGLVQAGGSLRVSCAASGNIFGEYAMGWYRQAPGKERELVAAITNSGGRTHYADSVKGRFTISRDNAKNTVYLQMNSLKPEDTAVYYCAAPTKYRSRRYYWGQGTQVTVSS”, which “polyreactivity (PSR sort gate)” value is on record?
Answer: high polyreactivity

Question: With “QVQLEESGGGLVQAGGSLRLSCAASGSTFSDNAMGWYRQAPGKERELVAAISTGTSTYADSVKGRFTISRDNAKNTVYLQMNSLKPEDTAVYYCAADVGIRPLNYHPYNYWGQGTQVTVSS” as the sequence, how does the “polyreactivity (PSR sort gate)” value read?
Answer: low polyreactivity

Question: For “QVQLVESGGGLVQAGGSLRLSCAASGFTFRYYAMGWYRQAPGKERELVAGISSRGGSTYYADSVKGRFTISRDNAKNTDYLQMNSLKTEDTAVYYCATERFLLGLGYDYWGQGTQVTVSS”, which “polyreactivity (PSR sort gate)” value is on record?
Answer: high polyreactivity

Question: With “QVQLVESGGGLVQAGGSLRLSCAASGSTFSGYTMGWYRQAPGKERELVASISSGVSTYYADSVKGRFTISRDNAKNTVYLQMNSLKPEDTAVYYCAADSVGDYGYQVYASWGYEDEYWGQGTQVTVSS” as the sequence, how does the “polyreactivity (PSR sort gate)” value read?
Answer: low polyreactivity

Question: Which “polyreactivity (PSR sort gate)” value does the source give for “QVQLVESGGGLVQAGGSLRLSCAASGRIFTIYAMGWYRQAPGKERELVAAISDRGTRTYYADSVKGRFTISRDNAKNTVYLQMNSLKPEDTAVYYCATDALYTYGYYYWGQGTQVTVSS” here?
Answer: low polyreactivity

Question: Which “polyreactivity (PSR sort gate)” value does the source give for “QVQLVESGGGLVQAGGSLRLSCAASGIIFRYNTMGWYRQAPGKERELVAAITRSGGSTYYADSVKGRFTISRDNAKNTVYLQMNSLKPEDTAVYYCAAQGYSYRHTAFEYWGQGTQVTVSS” here?
Answer: high polyreactivity

Question: For “QVQLVESGGGLVQAGGSLRLSFDASGLIFYYYTMGWYRPAPGKERELVAAITWTDVDTYYADSVKGRFTISRDNAKNTVYLQMNSLKPEDTAVYYCAAEGGRTSYGGSGELDYWGQGTQVTVSS”, which “polyreactivity (PSR sort gate)” value is on record?
Answer: high polyreactivity

Question: With “QVQLVESGGGLVQAGGSLRLSSAASGSTFEIYAMGWYRQAPGKERDLVAGITTSDGRTDYADSVKGRFTISRDNAKNTVYLLMNILKPEDTAVYYCAKVTLGYTWYQYDYWGQGTQVTVSS” as the sequence, how does the “polyreactivity (PSR sort gate)” value read?
Answer: low polyreactivity

Question: Which “polyreactivity (PSR sort gate)” value does the source give for “QFQLVESGGGLVQAGGSLRLSCAASGITFSFYAIVWYRQATGKERELVAAINGRGGRTYYADSVKGRFTISRDKAKNTFYLQMNSLKTEDTAVYFCAAVVWRTDYDYWGQGTQVTVSS” here?
Answer: low polyreactivity

Question: Which “polyreactivity (PSR sort gate)” value does the source give for “QVQLVESGGGLVQAGGSLRLSSAASGRTFYYYAFGWYRQAPGKERELVARITAICGRTYYADSVKGRFTISLDNAKNTVYLQMNCLKPEDTAVYYCAAASWPAYSYYPFYYWGQGSQVTVSS” here?
Answer: high polyreactivity

Question: With “QVHLVESAGCLVQAAGSLRLSCSASGFTFGYNTMGWFRQPPGKERELVAAISYGGGRTYYADSVKWRFTISRDNAKNTVYLQMNSLKPEDSAVYYCAAAPIPSLTYDYWGQGTQVTVSS” as the sequence, how does the “polyreactivity (PSR sort gate)” value read?
Answer: low polyreactivity

Question: Which “polyreactivity (PSR sort gate)” value does the source give for “QVQLVESGGCLVQAGGSLRLSGAASGRIFGRNAMGWYRQAPGKERELVAAINSGVSTYYADSVKGRFTIARDNAKNTVYLQMNSLKPEDTAVYYSATDTDYYLLYLYYYWGQGTQVTVSS” here?
Answer: low polyreactivity

Question: Which “polyreactivity (PSR sort gate)” value does the source give for “QVQLVESVGGLVQAGGSLRLSCDASGYIFKNYAMGWYIQAPGKERELVAAINWSGGNTYYADSVKGRFTISRDNAKNTVYLQMNSLKPEDTAVYYCNAVSSLRSYGYNYCGQGTQVTVSS” here?
Answer: low polyreactivity

Question: With “QVQLVESGGGLVQAGGSLRLSCAASGRTFYSYAMGWYRQAPGKERELVATITNGDTTNYADSVKGRFTISRDNAKNTVYLQMNSLKPEDTAVYYCAKDISPGYDEYDYWGQGTQVTVSS” as the sequence, how does the “polyreactivity (PSR sort gate)” value read?
Answer: low polyreactivity

Question: For “QVQLVESGGGLVQAGGSLRLSCAASGRIFATNAMGWYREAPGKERELVATITRSAGRTYYADSVKGRFTISRDNAKNSVYLQMNSLKPEDTAVYYCAASYWDTEPGYREYDYWGQGTQVTVSS”, which “polyreactivity (PSR sort gate)” value is on record?
Answer: low polyreactivity

Question: Which “polyreactivity (PSR sort gate)” value does the source give for “QVQLVESGGGLDQAGGSLRLICADSGSIFYIYAMGWYIHAPGKETELVASISGSGSTYYADSVKGRFRISRDNAKNTVYLQMNSLKPEDTAVYYCAVELWRVWGAYSYTYDYWGQGTQVTVSS” here?
Answer: high polyreactivity

Question: Which “polyreactivity (PSR sort gate)” value does the source give for “QVQLVESGGGLVQAGGSLRLSCAASGSIFWPYAMGWYRQAPGKERELVAAITWSGSSTYYADSVKGRFTISRDNAKNTVYLQMKSLKPEDTAVYYCAKRGWGIYDYWGQGTQVTVSS” here?
Answer: low polyreactivity

Question: Which “polyreactivity (PSR sort gate)” value does the source give for “QVQLVESGGGLVQAGGSLRLSCAASGFTFSFYAMGWYRQAPGKERELVAGISKRGGSTYYADSVKGRFTISRDNAKKTVFLQMNSLKPEDTAVYYCARSYYTNGNALKRDYWGQGTQVTVSS” here?
Answer: high polyreactivity

Question: For “QVRLVESGGGLVQAGGSLRLSCAASGRIFQYYAMGWYRQAPGKERELVASITSGGGSTYYADSVKGRFTISRDNAKNTVYLQMNSLKPEDTAVYYCNARWYGLSTRYDYWGQGTQVTVSS”, which “polyreactivity (PSR sort gate)” value is on record?
Answer: low polyreactivity

Question: Which “polyreactivity (PSR sort gate)” value does the source give for “QVQLVESGGGLVQAGGSLRLSCAASGFIFSKYARGCYRQAPGKEGELVAAITFSGGSTYYADSVKGRFTISRDNAKNTVYLQMHSLKPEDTAVYYCNAEGSYPDVSPVLGYDYWGQGTQVTVSS” here?
Answer: low polyreactivity

Question: With “QVQLVESGGGLVQAGGSLRLSCAASGRIFAGYVMGWYRQAPGKERELVAAITSGGGTDYADSVKGRFTISRDNAKNTVYLQMNSQKPEDTAVYYCAADPYYSWFGWDYEYWGQGTQVTVSS” as the sequence, how does the “polyreactivity (PSR sort gate)” value read?
Answer: high polyreactivity

Question: For “QVQLVESGGGLVQAGGSLRLSCAASGRIFSTYVMGWYRQAPGKERELVAAITWSGGSTYYADSVKGRFTISRDNAKNTVYLQMNSLKPEDTAVYYCAADEIYRYGYWGQGTLVTVSS”, which “polyreactivity (PSR sort gate)” value is on record?
Answer: high polyreactivity

Question: For “QVQLVESGGGLVQAGGSLRLSCAASGSTFRYNAMGWYRQAPGKERELVAAINWSGSSTYYADSVKGRVTISRDNAKNTVYLQMNRLKPEDTAVNYCAAERPWYTKWGEYWGQGTQVTVSS”, which “polyreactivity (PSR sort gate)” value is on record?
Answer: high polyreactivity

Question: For “QVQLVESGGGLVQAGGSLRLSCAASGSMFIWNAMGWYRQAPGKARELVAAISFTGTSTYYADSVKGRCTSSRDNAKNTVYLQMNSLKPEDTAVYYCNTDYRGSQYDYWVQGTQVTVSS”, which “polyreactivity (PSR sort gate)” value is on record?
Answer: low polyreactivity

Question: Which “polyreactivity (PSR sort gate)” value does the source give for “QVQLIESGGGLVQAGGSLRLSCAASGFTFYYNTMGWYRQAPGKERELVAAITRSVGSTYYADSVKGRFTISRDNAKNTVYLQMNSLKPEDTAVYYCAARRLGYYRKVKELDYWGQGTQVTVSS” here?
Answer: high polyreactivity

Question: With “QVQLVESGGGLVQAGGSLRLSCAASGSTFDPYAMGWYRQAPGKDRELVAAISSDGSTYYADSVKGRFTISRDNAKNTVYLQMNSLKPEYTAVYYCAADPFYWYRSVRGEYWGQGTQVTVSS” as the sequence, how does the “polyreactivity (PSR sort gate)” value read?
Answer: low polyreactivity

Question: For “QVQLVESGGGLVQAGGSLRLSCAASGFTFYEYAMGWYRQAPGKERELVAAINRRGGRTYYADSVKGRFTISRDNAKNTVYLQMNSLKPEDTAVYYCNTPVSDGGHYYSWGQGTQVTVSS”, which “polyreactivity (PSR sort gate)” value is on record?
Answer: high polyreactivity

Question: With “QVQLVESGGCLVQAGGSLRLSCAASGFTFGPYAMGWYRQARGKERELVATLRSGDSTNYADSVKGRFTISRDNAKNTVYLQMNSVKPDDTAVYYCAVSYLSTMGRSRYEYWGQGTQVTVSS” as the sequence, how does the “polyreactivity (PSR sort gate)” value read?
Answer: low polyreactivity

Question: For “QVQLVESGGGLVQAGGSLRLSCAASGFTFVNYAMGWYRQAPGKERELVAAIRRSGSRTYYADSVKGRCTISRDIAKYTVYLQMNSLKPDDTPVYYCAAVWYRLYGYWGQGTQVTVSS”, which “polyreactivity (PSR sort gate)” value is on record?
Answer: low polyreactivity

Question: With “QVQLVESGAGLVQAGGSLRLSCAASGSSSLYNAMGWYRQAPGKERELVAAISSGGSTNYADSVKGRFTISRENAKNNVYLQMNSLQPEDTAVYYCAAVTVRRVSCAQYKQYDYWGLGTQVTVSS” as the sequence, how does the “polyreactivity (PSR sort gate)” value read?
Answer: high polyreactivity

Question: Which “polyreactivity (PSR sort gate)” value does the source give for “QVQLVESGGGLVQAGGSLRLSCAASGSTFYLYAKVWYRQAPGKERELVAAISWSGGDTYYADSVKGRFTISRDKAKNTVYLQMNSLKPEDTAVYYCAAEISYSSPGSPRRRDYWGQGTQVTVSS” here?
Answer: low polyreactivity

Question: Which “polyreactivity (PSR sort gate)” value does the source give for “QLQLVESGGGLVQAGGSLRLSCAASGRIFRRYTMRSYRQAPGKERELVAAITWKGGRTSYADSVKGRFTISRDNANNTVYLQMNSLKPQDTAVYYCAAECPSRYHTFEFWGQGTQVTVSS” here?
Answer: high polyreactivity

Question: For “QVQLVESGGGLVQAGGSLRLSCAASGGTFLYYAMGWYRQAPGKERELVAAISSSTGSTNYADSVKGRFTISRDNAKNTVYLQMNSLKPEDTAVYYCAAAPHRHSWYYTRHPYFCMDYWGQGTQVTVSS”, which “polyreactivity (PSR sort gate)” value is on record?
Answer: low polyreactivity

Question: For “QVQLVESGGGLDQAGGRLRLSCAASGIIFPIYAMRLYRQAPGKERELVAGISTGGGGTYYADSVKGRFTISRDNAKNTVYLQMNSLKPEDSAVYYCSTSGPLYYSRNFDYWGQGTQVTVSS”, which “polyreactivity (PSR sort gate)” value is on record?
Answer: low polyreactivity

From the nanobody polyreactivity screen of Harvey et al. (2022)
